Measurements from paper PMC11510292, “Heterobivalent Dual-Target Peptide for Integrin-αvβ3 and Neuropeptide Y Receptors on Breast Tumor” (Pharmaceuticals, 2024).

How the values were obtained:
[1] = Biodistribution in SCID mice bearing MDA-MB-231 xenografts; format: in vivo; details: female, mouse, total radioactivity; for tissue uptake at 1 h / tissue uptake per volume at 1 h: SCID, MDA-MB231 model, 60 min p.i., 0.1 mL/18.5 MBq IV; for tissue uptake per volume at 1 h: whole blood
Experimental: (§1) To evaluate the uptake of the radiolabeled peptide by breast tumors, additional biodistribution studies were performed in SCID mice bearing MCF-7 and MDA-MB-231 xenografts (Table 2). […] The tumor uptakes of the radiolabeled conjugate were 9.30 ± 3.25% for MCF-7 and 4.93 ± 1.01% for MDA-MB-231 (Figure 5). The tumor-to-muscle ratios were 5.65 ± 0.94 for the MCF-7 model and 7.78 ± 3.20 for the MDA-MB-231 model (Figure 6).
(§2) The animals used in this experiment were provided by the Nuclear and Energy Research Institute (IPEN/CNEN-SP) vivarium. Every effort was made to minimize animal suffering per International Ethical Guidelines. The experimental protocols used in this study were approved by the Scientific Ethics Committee of the IPEN/CNEN-SP. Adult female SCID mice were maintained under controlled environmental conditions (12 h light-dark cycle; constant temperature 21 ± 2 °C), with free access to water and food. Suspensions of cells (5 × 10^6 in 0.1 mL) were subcutaneously injected into the upper back regions of the mice.
(§3) […] Animals were deeply anesthetized and euthanized at the corresponding biodistribution time point. Blood, brain, spleen, heart, stomach, liver, lungs, kidneys, pancreas, muscle, bone, small intestine, and large intestine were collected and weighed. The radioactivity of each organ/tissue was then determined using the above-mentioned automatic gamma counter. The radioactivity was evaluated as the percentage of injected activity per gram of organ/tissue (%IA/g), using the same injected dose activity as a standard. Receptor-blocking studies in tumor models were also carried out by co-administration of 100 μg of cold-conjugated peptide along with radiopeptide.

[2] = Biodistribution in SCID mice bearing MCF-7 xenografts; format: in vivo; details: female, mouse, total radioactivity; for tissue uptake at 1 h / tissue uptake per volume at 1 h: SCID, MCF-7 model, 60 min p.i., 0.1 mL/18.5 MBq IV; for tissue uptake per volume at 1 h: whole blood
Experimental: as §1, §2, §3

[3] = brain, Non-Block, n = 5, read-out: Brain uptake
[4] = heart, Block with excess cold peptide, n = 3, read-out: Heart uptake
[5] = heart, Non-Block, n = 5, read-out: Heart uptake
[6] = kidneys, Block with excess cold peptide, n = 3, read-out: Kidneys uptake
[7] = kidneys, Non-Block, n = 5, read-out: Kidneys uptake
[8] = large intestine, Block with excess cold peptide, n = 3, read-out: Large Intestine uptake
[9] = large intestine, Non-Block, n = 5, read-out: Large Intestine uptake
[10] = liver, Block with excess cold peptide, n = 3, read-out: Liver uptake
[11] = liver, Non-Block, n = 5, read-out: Liver uptake
[12] = lungs, Block with excess cold peptide, n = 3, read-out: Lungs uptake
[13] = lungs, Non-Block, n = 5, read-out: Lungs uptake
[14] = muscle, Block with excess cold peptide, n = 3, read-out: Muscle uptake
[15] = muscle, Non-Block, n = 5, read-out: Muscle uptake
[16] = pancreas, Block with excess cold peptide, n = 3, read-out: Pancreas uptake
[17] = pancreas, Non-Block, n = 5, read-out: Pancreas uptake
[18] = small intestine, Block with excess cold peptide, n = 3, read-out: Small Intestine uptake
[19] = small intestine, Non-Block, n = 5, read-out: Small Intestine uptake
[20] = spleen, Block with excess cold peptide, n = 3, read-out: Spleen uptake
[21] = spleen, Non-Block, n = 5, read-out: Spleen uptake
[22] = stomach, Block with excess cold peptide, n = 3, read-out: Stomach uptake
[23] = stomach, Non-Block, n = 5, read-out: Stomach uptake
[24] = tumor, Non-Block, n = 5, read-out: Tumor uptake
[25] = Block with excess cold peptide, n = 3

In the case of `CCCC[C@H](NC(=O)[C@H](CCCNC(=N)N)NC(=O)[C@H](Cc1c[nH]c2ccccc12)NC(=O)[C@H](CSCC(=O)NCCCC[C@@H]1NC(=O)[C@@H](Cc2ccccc2)NC(=O)[C@H](CC(=O)O)NC(=O)CNC(=O)[C@H](CCCNC(=N)N)NC1=O)NC(=O)[C@@H]1CCCN1C(=O)[C@H](CC(N)=O)NC(=O)[C@@H](NC(=O)COCCOCCNC(=O)c1ccc(NN)nc1)[C@@H](C)CC)C(=O)N[C@@H](CCCNC(=N)N)C(=O)N[C@@H](Cc1ccc(O)cc1)C(N)=O` [[^99mTc]HYNIC-cRGDfk-NPY, metal not drawn], the tissue uptake at 1 h [1, 3] is reported as 0.18 ± 0.04 %ID/g, the tissue uptake at 1 h [1, 4] is reported as 0.74 ± 0.2 %ID/g and the tissue uptake at 1 h [1, 5] is reported as 1.48 ± 0.29 %ID/g. The tissue uptake at 1 h [1, 6] was 13 ± 2.68 %ID/g, the tissue uptake at 1 h [1, 7] was 19.3 ± 2.89 %ID/g and the tissue uptake at 1 h [1, 8] was 2.22 ± 0.98 %ID/g. The tissue uptake at 1 h [1, 9] was 5.18 ± 0.87 %ID/g, the tissue uptake at 1 h [1, 10] was 1.41 ± 0.62 %ID/g and the tissue uptake at 1 h [1, 11] was 3.75 ± 0.51 %ID/g. The tissue uptake at 1 h [1, 12] was 1.95 ± 0.6 %ID/g, the tissue uptake at 1 h [1, 13] was 3.27 ± 0.47 %ID/g and the tissue uptake at 1 h [1, 14] was 0.33 ± 0.02 %ID/g. For the same molecule, the tissue uptake at 1 h [1, 15] was 0.88 ± 0.13 %ID/g, the tissue uptake at 1 h [1, 16] was 0.7 ± 0.21 %ID/g and the tissue uptake at 1 h [1, 17] was 1.35 ± 0.35 %ID/g. It also gave a tissue uptake at 1 h [1, 18] of 2.16 ± 0.74 %ID/g, a tissue uptake at 1 h [1, 19] of 8.3 ± 1.36 %ID/g and a tissue uptake at 1 h [1, 20] of 1.51 ± 0.22 %ID/g. For the same molecule, the tissue uptake at 1 h [1, 21] was 5.02 ± 0.63 %ID/g, the tissue uptake at 1 h [1, 22] was 2.05 ± 0.33 %ID/g and the tissue uptake at 1 h [1, 23] was 5.63 ± 0.96 %ID/g. It also gave a tissue uptake at 1 h ([1]; tumor, Block with excess cold peptide, n = 3, p < 0.05 vs non-block, read-out: Tumor uptake) of 2.3 ± 0.41 %ID/g, a tissue uptake at 1 h [1, 24] of 4.93 ± 1.01 %ID/g and a tissue uptake per volume at 1 h [1, 25] of 1.4 ± 0.21 %ID/mL. It also gave a tissue uptake per volume at 1 h ([1]; Non-Block, n = 5) of 1.8 ± 1.03 %ID/mL, a tissue to tissue ratio at 1 h ([1]; tumor and muscle, 37 MBq, MDA-MB-231 tumor-bearing SCID mice, 1 h after IV injection, n = 5) of 7.78 ± 3.2 and a tissue uptake at 1 h ([2]; bone, Block with excess cold peptide, n = 3, read-out: Bone uptake) of 1.08 ± 0.77 %ID/g. It also gave a tissue uptake at 1 h ([2]; bone, Non-Block, n = 5, read-out: Bone uptake) of 1.4 ± 0.72 %ID/g, a tissue uptake at 1 h ([2]; brain, Block with excess cold peptide, n = 3, read-out: Brain uptake) of 0.08 ± 0.01 %ID/g and a tissue uptake at 1 h [2, 3] of 0.16 ± 0.06 %ID/g. It also gave a tissue uptake at 1 h [2, 4] of 0.65 ± 0.24 %ID/g, a tissue uptake at 1 h [2, 5] of 1.53 ± 0.45 %ID/g and a tissue uptake at 1 h [2, 6] of 20.8 ± 7.02 %ID/g. For the same molecule, the tissue uptake at 1 h [2, 7] was 24.6 ± 8.6 %ID/g, the tissue uptake at 1 h [2, 8] was 3.91 ± 2.11 %ID/g and the tissue uptake at 1 h [2, 9] was 6.41 ± 1.63 %ID/g. It also gave a tissue uptake at 1 h [2, 10] of 1.84 ± 0.13 %ID/g, a tissue uptake at 1 h [2, 11] of 3.61 ± 0.73 %ID/g and a tissue uptake at 1 h [2, 12] of 1.59 ± 0.34 %ID/g. It also gave a tissue uptake at 1 h [2, 13] of 3.58 ± 1.22 %ID/g, a tissue uptake at 1 h [2, 14] of 0.59 ± 0.37 %ID/g and a tissue uptake at 1 h [2, 15] of 1.56 ± 1.41 %ID/g. It also gave a tissue uptake at 1 h [2, 16] of 1.12 ± 0.42 %ID/g, a tissue uptake at 1 h [2, 17] of 1.62 ± 0.3 %ID/g and a tissue uptake at 1 h [2, 18] of 3.77 ± 0.95 %ID/g. It also gave a tissue uptake at 1 h [2, 19] of 10.3 ± 2.18 %ID/g, a tissue uptake at 1 h [2, 20] of 2.53 ± 0.74 %ID/g and a tissue uptake at 1 h [2, 21] of 5.33 ± 1.88 %ID/g. It also gave a tissue uptake at 1 h [2, 22] of 2.98 ± 0.57 %ID/g, a tissue uptake at 1 h [2, 23] of 6.04 ± 1.15 %ID/g and a tissue uptake at 1 h ([2]; tumor, Block with excess cold peptide, n = 3, p > 0.05 vs non-block, read-out: Tumor uptake) of 4.41 ± 2.13 %ID/g. It also gave a tissue uptake at 1 h [2, 24] of 9.3 ± 3.25 %ID/g, a tissue uptake per volume at 1 h [2, 25] of 0.92 ± 0.07 %ID/mL and a tissue uptake per volume at 1 h ([2]; Non-Block, n = 5) of 1.66 ± 0.89 %ID/mL. For the same molecule, the tissue to tissue ratio at 1 h ([2]; tumor and muscle, 37 MBq, MCF-7 tumor-bearing SCID mice, 1 h after IV injection, n = 5) was 5.65 ± 0.94.
